Data: patent US20220227876A1 (COUNCIL OF THE QUEENSLAND INSTITUTE OF MEDICAL RESEARCH, published 2022)
Values joined by “and” are separate entries in the source; they are usually repeats but may differ in a detail not shown here. Identical values can stand only once. Blank lines part the entries; values can stand above or below the molecule they belong to.

Legend:
Assay in all cases: cell-based or functional assay
[1] = biological target: recombinant soluble human RANKL (human) (UniProt O14788)
[2] = biological target: soluble mouse RANKL (mouse) (UniProt O35235)
[3] = biological target: T1, mouse RANK on murine bone marrow cells (mouse, UniProt O35305 31-625)
T1 sequence (looked up): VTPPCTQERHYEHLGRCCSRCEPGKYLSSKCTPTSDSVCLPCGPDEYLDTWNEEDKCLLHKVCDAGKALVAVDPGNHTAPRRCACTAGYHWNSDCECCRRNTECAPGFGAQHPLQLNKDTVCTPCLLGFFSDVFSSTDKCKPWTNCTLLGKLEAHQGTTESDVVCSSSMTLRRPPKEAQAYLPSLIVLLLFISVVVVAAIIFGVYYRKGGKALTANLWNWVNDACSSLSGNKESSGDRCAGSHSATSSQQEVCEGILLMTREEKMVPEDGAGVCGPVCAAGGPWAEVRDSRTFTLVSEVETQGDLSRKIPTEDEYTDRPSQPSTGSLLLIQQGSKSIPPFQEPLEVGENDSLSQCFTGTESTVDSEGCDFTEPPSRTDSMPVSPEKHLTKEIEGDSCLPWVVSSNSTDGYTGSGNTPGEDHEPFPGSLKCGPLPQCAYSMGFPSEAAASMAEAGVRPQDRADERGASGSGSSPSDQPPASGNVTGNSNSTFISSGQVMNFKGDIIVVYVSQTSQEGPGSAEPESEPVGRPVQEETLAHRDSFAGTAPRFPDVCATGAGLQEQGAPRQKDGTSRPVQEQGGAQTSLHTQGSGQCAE

Chain of soluble mouse RANKL (mouse) (O35235 143-316 limits assumed): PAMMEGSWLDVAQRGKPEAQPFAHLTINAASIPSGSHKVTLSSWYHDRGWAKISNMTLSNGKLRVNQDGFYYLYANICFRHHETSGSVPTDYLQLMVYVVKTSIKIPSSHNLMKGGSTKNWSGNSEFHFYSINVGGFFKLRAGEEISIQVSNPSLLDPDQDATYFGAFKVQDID
Chain of recombinant soluble human RANKL (human) (O14788 143-317 limits assumed): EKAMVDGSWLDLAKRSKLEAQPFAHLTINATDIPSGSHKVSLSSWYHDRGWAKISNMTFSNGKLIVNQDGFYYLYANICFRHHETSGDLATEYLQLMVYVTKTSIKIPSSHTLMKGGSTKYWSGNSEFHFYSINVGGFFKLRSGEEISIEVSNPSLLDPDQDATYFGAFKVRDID

IC50, huRANKL-induced osteoclast formation (TRAP+ multinucleated cells) [1]: 0.092 µg/mL
concentration for complete block of huRANKL-induced osteoclast formation [1]: 500 ng/mL and 1000 ng/mL
Molecule: RANK-Fc (positive control in osteoclast assay) (Fc fusion)

IC50, muRANKL-induced osteoclast formation (TRAP+ multinucleated cells) [2]: 0.0198 µg/mL
concentration for complete block of muRANKL-induced osteoclast formation [2]: 62.5 to 125 ng/mL
B1: anti-muRANKL IK22-5 mAb (antibody, from a related filing, V domains shown)
VH: QVQLKESGPGLVLSSATLSLTCTVSGFSLTNYDVSWIRHLPGKGLEWMGGVWLSGNTEYNSDFKSRLSISRDISKSQVFLKMSNLKIEDTGTYYCARDIGTTSDYWGQGVTVTVSS
VL: DIQVTQSPSFLSASVGDRVTFNCKTSQNINKYLAWYQAKFGEGPKLLIFNADSLQSGIPPRFSGSGSGTDFTLTISGLQPEDFATYFCLQYNSWPTFGSGTKLEIK

IC50, huRANKL-induced osteoclast formation (TRAP+ multinucleated cells) [3]: 0.0035 µg/mL
IC50, muRANKL-induced osteoclast formation (TRAP+ multinucleated cells) [3]: 0.0074 µg/mL
potency ratio from IC50s, huRANKL-induced osteoclast formation [3]: ~25 fold
potency ratio from IC50s, muRANKL-induced osteoclast formation [3]: ~2 fold
B2: anti-RANK 3A3 antibody (full-length IgG, human Fab on a mouse IgG2a Fc backbone) (antibody, V domains shown)
VH: EVQLVESGGGVVQPGTSLRLSCAASGFTFSSYAMHWVRQAPGKGLEWVAVVSYDGSTKSYADSMKGRFTISRDNSKNTLYLQMNSLRAEDTAVYYCAKDPALRYFDWGYFQHWGQGTLVTVSS
VL: SYELTQPPSVSVSPGQTASITCSGDKLGDKYVCWYQQKPGQSPVLVIYGDSERPSGIPERFSGSNSGNTATLTISGTRAVDEADYYCQAWDSTTPLFGGGTNLTVL
